{
  "source": "paper doi:10.1101/2024.03.15.585299",
  "about": "“Biochemical analysis of the endoribonuclease activity of the human mitochondrial topoisomerase 1”",
  "binders": {"B1": {"name": "Substrate A (dsDNA)", "DNA 1": "AGCGTTGAAGATATGTGGCAAAACCTTTGT", "DNA 2": "ACAAAGGTTTTGCCACATATCTTCAACGCT"}, "B2": {"name": "Substrate C (dsDNA)", "DNA 1": "ACTCGTCACGAGAGAGATGCCACGGTATTTCAAA", "DNA 2": "TTTGAAATACCGTGGCATCTCTCTCGTGACGAGT"}, "B3": {"name": "Substrate D (dsDNA)", "DNA 1": "B2 DNA 1", "DNA 2": "B2 DNA 2", "modifications": "single ribonucleotide rG at position 16 of top strand (2 nt upstream of cleavage site), rest DNA"}},
  "assay_in_all_cases": "fluorescence anisotropy; 20 mM Tris pH 8, 66 mM NaCl, 1 mM DTT, 10% glycerol, 25 C, 10 min; 0.5 nM dsDNA, 0-60 nM Top1",
  "conditions_in_all_cases": "protein: recombinant; tags: GST removed by 3C protease; label: 5'-FAM top strand; blunt",
  "key": {"[1]": {"molecular_target": "hTop1-Y723F (catalytically inactive) (Homo sapiens, UniProt P11387 1-765, Y723F)", "sequence (P11387 whole entry Y723F)": "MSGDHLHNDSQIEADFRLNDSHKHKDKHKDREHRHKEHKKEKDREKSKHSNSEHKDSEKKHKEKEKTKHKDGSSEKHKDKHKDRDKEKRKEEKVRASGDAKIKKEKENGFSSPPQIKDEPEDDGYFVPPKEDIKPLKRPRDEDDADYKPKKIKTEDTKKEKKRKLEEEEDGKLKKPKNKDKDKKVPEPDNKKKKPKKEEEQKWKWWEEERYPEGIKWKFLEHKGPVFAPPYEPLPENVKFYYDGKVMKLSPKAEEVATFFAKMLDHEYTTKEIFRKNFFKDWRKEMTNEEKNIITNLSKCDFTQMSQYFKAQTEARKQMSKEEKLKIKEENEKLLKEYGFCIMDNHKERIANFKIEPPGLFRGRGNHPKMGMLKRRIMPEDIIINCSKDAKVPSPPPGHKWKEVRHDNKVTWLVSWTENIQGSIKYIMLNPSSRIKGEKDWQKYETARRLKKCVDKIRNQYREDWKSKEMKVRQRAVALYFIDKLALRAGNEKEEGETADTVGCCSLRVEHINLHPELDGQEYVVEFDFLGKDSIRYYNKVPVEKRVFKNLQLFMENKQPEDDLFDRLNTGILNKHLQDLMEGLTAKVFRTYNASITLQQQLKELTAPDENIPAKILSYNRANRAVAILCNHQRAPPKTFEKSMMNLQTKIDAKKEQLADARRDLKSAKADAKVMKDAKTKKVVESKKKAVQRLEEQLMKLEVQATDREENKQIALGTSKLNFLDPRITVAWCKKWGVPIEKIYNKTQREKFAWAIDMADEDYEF"}, "[2]": {"molecular_target": "T1, hTop1mt-Y559F (catalytically inactive) (Homo sapiens, UniProt Q969P6 51-601, Y559F)", "T1 sequence": "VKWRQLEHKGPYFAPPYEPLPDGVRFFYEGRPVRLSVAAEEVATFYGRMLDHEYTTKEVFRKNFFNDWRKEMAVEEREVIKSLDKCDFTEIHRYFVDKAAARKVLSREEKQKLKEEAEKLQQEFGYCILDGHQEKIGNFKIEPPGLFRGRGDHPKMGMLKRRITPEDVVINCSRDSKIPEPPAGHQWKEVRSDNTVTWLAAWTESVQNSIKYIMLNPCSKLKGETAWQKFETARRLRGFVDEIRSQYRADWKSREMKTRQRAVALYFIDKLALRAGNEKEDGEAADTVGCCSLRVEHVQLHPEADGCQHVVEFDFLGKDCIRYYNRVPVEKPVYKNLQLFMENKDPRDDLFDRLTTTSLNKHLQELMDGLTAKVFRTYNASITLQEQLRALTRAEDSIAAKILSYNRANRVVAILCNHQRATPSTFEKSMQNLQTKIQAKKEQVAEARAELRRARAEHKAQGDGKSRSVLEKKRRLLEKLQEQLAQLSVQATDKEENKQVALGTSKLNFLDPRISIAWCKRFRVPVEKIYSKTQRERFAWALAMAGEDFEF"}, "[3]": {"molecular_target": "T2, scTop1 catalytically inactive (Y272F as printed) (Saccharomyces cerevisiae, UniProt P04786 1-769, Y727F)", "T2 sequence": "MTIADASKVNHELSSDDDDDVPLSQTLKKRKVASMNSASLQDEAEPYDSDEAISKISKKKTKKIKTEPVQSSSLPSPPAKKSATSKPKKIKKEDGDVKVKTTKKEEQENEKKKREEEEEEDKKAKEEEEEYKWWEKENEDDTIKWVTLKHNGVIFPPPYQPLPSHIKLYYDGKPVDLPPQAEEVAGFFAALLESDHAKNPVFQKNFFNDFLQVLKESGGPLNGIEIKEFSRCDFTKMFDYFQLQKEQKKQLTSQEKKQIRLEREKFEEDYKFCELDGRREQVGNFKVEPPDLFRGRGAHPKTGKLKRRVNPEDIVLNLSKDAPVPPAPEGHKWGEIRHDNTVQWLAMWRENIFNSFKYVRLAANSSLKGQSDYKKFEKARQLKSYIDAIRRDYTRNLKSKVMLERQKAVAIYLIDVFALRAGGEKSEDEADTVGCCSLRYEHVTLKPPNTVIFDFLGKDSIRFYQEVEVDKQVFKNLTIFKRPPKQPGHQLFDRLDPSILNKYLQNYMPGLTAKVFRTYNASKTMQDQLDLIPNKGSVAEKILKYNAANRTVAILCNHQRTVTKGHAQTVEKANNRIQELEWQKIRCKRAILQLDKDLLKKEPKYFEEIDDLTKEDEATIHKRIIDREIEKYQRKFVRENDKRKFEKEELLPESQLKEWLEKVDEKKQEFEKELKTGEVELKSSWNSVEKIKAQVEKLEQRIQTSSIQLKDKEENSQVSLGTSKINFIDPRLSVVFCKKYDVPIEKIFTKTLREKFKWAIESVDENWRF"}},
  "data": [
    {"binder": "B1", "values": [
      {"measurement": "Kd", "setting": "[1]", "value": 1.16, "unit": "nM"},
      {"measurement": "Kd", "setting": "[2]", "value": 3.5, "unit": "nM"},
      {"measurement": "Kd", "setting": "[3]", "value": 3.55, "unit": "nM"}
    ]},
    {"binder": "B2", "values": [
      {"measurement": "Kd", "setting": "[1]", "value": 1.26, "unit": "nM"},
      {"measurement": "Kd", "setting": "[2]", "value": 4.57, "unit": "nM"},
      {"measurement": "Kd", "setting": "[3]", "value": 9.47, "unit": "nM"}
    ]},
    {"binder": "B3", "values": [
      {"measurement": "Kd", "setting": "[1]", "value": 1.36, "unit": "nM"},
      {"measurement": "Kd", "setting": "[2]", "value": 2.29, "unit": "nM"},
      {"measurement": "Kd", "setting": "[3]", "value": 8.75, "unit": "nM"}
    ]}
  ]
}
